Target: T1, HCoV-HKU1 recombinant soluble S ectodomain protein (prefusion-stabilized trimer) (HCoV-HKU1)
T1 chain: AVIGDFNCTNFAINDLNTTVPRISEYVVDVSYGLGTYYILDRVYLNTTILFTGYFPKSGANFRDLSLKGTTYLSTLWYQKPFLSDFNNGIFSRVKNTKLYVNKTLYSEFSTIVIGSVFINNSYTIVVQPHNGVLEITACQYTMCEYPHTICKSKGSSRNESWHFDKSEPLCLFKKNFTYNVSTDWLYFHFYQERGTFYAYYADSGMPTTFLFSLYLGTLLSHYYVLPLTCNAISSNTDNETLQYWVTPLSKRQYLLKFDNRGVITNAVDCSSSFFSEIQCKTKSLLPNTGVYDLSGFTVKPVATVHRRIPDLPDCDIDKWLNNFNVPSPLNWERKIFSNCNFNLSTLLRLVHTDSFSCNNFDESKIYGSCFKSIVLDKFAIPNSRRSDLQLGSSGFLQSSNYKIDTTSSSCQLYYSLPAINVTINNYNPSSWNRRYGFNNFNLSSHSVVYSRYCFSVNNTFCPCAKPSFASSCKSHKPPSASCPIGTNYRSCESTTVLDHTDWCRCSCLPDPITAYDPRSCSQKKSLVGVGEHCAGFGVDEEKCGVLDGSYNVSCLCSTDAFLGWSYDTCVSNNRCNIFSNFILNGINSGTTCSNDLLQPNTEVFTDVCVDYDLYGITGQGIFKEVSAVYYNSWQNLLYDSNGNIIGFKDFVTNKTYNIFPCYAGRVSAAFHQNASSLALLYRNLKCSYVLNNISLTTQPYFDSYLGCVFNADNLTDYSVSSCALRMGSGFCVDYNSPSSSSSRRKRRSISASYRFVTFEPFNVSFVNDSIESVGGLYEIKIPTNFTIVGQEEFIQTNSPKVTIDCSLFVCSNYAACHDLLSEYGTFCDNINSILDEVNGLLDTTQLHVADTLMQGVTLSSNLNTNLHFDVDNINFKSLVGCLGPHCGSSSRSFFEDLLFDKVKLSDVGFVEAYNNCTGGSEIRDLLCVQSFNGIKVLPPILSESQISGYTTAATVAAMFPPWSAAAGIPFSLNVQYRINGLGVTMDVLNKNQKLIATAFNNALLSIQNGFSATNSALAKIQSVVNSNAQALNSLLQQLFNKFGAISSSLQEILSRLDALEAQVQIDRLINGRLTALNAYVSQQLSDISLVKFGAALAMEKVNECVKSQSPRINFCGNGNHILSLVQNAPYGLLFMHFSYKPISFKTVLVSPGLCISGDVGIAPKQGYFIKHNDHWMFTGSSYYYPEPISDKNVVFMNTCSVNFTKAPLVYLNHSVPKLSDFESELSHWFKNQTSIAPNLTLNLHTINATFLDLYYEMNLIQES
Experiment: BLI

Binder	Kd [nM]
Fab CC9.3 (Fab, V domains shown) VH: QVQLQESGPGLVKPSETLSLTCTVSGGSIRSDFWSWIRQFPGKGLEWIGYIYYSGSTNYNPSLESRVTISVDTSKNEFSLKLNYVTAADTAIYYCARETRWNWLDSWGQGTLVTVSS VL: DIVMTQSPDSLAVSLGERASINCKSSQTISYISNNKNYLAWYQQKPGQPPRLLIYWASTRESGVPDRFSGGGFGTDFTLTISSLQAEDVAVYYCQQYFNTPWTFGQGTKVEIK	< 1
Fab CC9.2 (Fab, V domains shown) VH: EVQLVESGGGLVQPGRSLRLSCVAPGFTLGGYGMHWVRQAPGKGLEWVGLISYDGSVQKYGSSVKGRFTISKDNSKNTLYLEMNSLRADDTAVYFCVKGASLGDNWGQGTLVTVSS VL: EIVMTQSPLSLPVTLGQPASISCRSSQSLVYSDGDTYMSWFHQRPGQSPRRLIYKVSNRDFGVPDRFSGSGSGTDFTLKISRVEAEDVGVYYCMQGTHWPYTFGPGTKVEIK	< 1
CC9.2 (IgG) (antibody, V domains shown) VH: EVQLVESGGGLVQPGRSLRLSCVAPGFTLGGYGMHWVRQAPGKGLEWVGLISYDGSVQKYGSSVKGRFTISKDNSKNTLYLEMNSLRADDTAVYFCVKGASLGDNWGQGTLVTVSS VL: EIVMTQSPLSLPVTLGQPASISCRSSQSLVYSDGDTYMSWFHQRPGQSPRRLIYKVSNRDFGVPDRFSGSGSGTDFTLKISRVEAEDVGVYYCMQGTHWPYTFGPGTKVEIK	< 1
Fab CC40.8 (Fab, V domains shown) VH: EVQLLESGGGLVQPGGSLRLSCAASGFTFSSYVMTWARQAPGKGLEWVSAISGTGYTYYADSVKGRFTVSRDNSKNTLFLQMSSLRAEDTAVYYCAITMAPVVWGQGTTVTVSS VL: SYELTQPPSVSVSPGQTARITCSGDALPKRYAYWYQQKSGQAPILVIYEDKKRPSGIPERLSGSKSGTVATLTISGAQVEDEADYYCYSTDSSGNHAVFGGGTQLTVL	< 1
CC9.3 (IgG) (antibody, V domains shown) VH: QVQLQESGPGLVKPSETLSLTCTVSGGSIRSDFWSWIRQFPGKGLEWIGYIYYSGSTNYNPSLESRVTISVDTSKNEFSLKLNYVTAADTAIYYCARETRWNWLDSWGQGTLVTVSS VL: DIVMTQSPDSLAVSLGERASINCKSSQTISYISNNKNYLAWYQQKPGQPPRLLIYWASTRESGVPDRFSGGGFGTDFTLTISSLQAEDVAVYYCQQYFNTPWTFGQGTKVEIK	< 1
CC40.8 (IgG) (antibody, V domains shown) VH: EVQLLESGGGLVQPGGSLRLSCAASGFTFSSYVMTWARQAPGKGLEWVSAISGTGYTYYADSVKGRFTVSRDNSKNTLFLQMSSLRAEDTAVYYCAITMAPVVWGQGTTVTVSS VL: SYELTQPPSVSVSPGQTARITCSGDALPKRYAYWYQQKSGQAPILVIYEDKKRPSGIPERLSGSKSGTVATLTISGAQVEDEADYYCYSTDSSGNHAVFGGGTQLTVL	< 1

Each binder was assayed against SARS-CoV-2 S (SARS-CoV-2, UniProt P0DTC2 1-1208) (assay: BLI).

Binder	Kd [nM]
CC40.8 IgG (antibody, V domains shown) VH: EVQLLESGGGLVQPGGSLRLSCAASGFTFSSYVMTWARQAPGKGLEWVSAISGTGYTYYADSVKGRFTVSRDNSKNTLFLQMSSLRAEDTAVYYCAITMAPVVWGQGTTVTVSS VL: SYELTQPPSVSVSPGQTARITCSGDALPKRYAYWYQQKSGQAPILVIYEDKKRPSGIPERLSGSKSGTVATLTISGAQVEDEADYYCYSTDSSGNHAVFGGGTQLTVL	1
CC9.3 IgG (antibody, V domains shown) VH: QVQLQESGPGLVKPSETLSLTCTVSGGSIRSDFWSWIRQFPGKGLEWIGYIYYSGSTNYNPSLESRVTISVDTSKNEFSLKLNYVTAADTAIYYCARETRWNWLDSWGQGTLVTVSS VL: DIVMTQSPDSLAVSLGERASINCKSSQTISYISNNKNYLAWYQQKPGQPPRLLIYWASTRESGVPDRFSGGGFGTDFTLTISSLQAEDVAVYYCQQYFNTPWTFGQGTKVEIK	2
CC9.3 Fab (Fab, V domains shown) VH: QVQLQESGPGLVKPSETLSLTCTVSGGSIRSDFWSWIRQFPGKGLEWIGYIYYSGSTNYNPSLESRVTISVDTSKNEFSLKLNYVTAADTAIYYCARETRWNWLDSWGQGTLVTVSS VL: DIVMTQSPDSLAVSLGERASINCKSSQTISYISNNKNYLAWYQQKPGQPPRLLIYWASTRESGVPDRFSGGGFGTDFTLTISSLQAEDVAVYYCQQYFNTPWTFGQGTKVEIK	112
CC40.8 Fab (Fab, V domains shown) VH: EVQLLESGGGLVQPGGSLRLSCAASGFTFSSYVMTWARQAPGKGLEWVSAISGTGYTYYADSVKGRFTVSRDNSKNTLFLQMSSLRAEDTAVYYCAITMAPVVWGQGTTVTVSS VL: SYELTQPPSVSVSPGQTARITCSGDALPKRYAYWYQQKSGQAPILVIYEDKKRPSGIPERLSGSKSGTVATLTISGAQVEDEADYYCYSTDSSGNHAVFGGGTQLTVL	5
CC9.2 Fab (Fab, V domains shown) VH: EVQLVESGGGLVQPGRSLRLSCVAPGFTLGGYGMHWVRQAPGKGLEWVGLISYDGSVQKYGSSVKGRFTISKDNSKNTLYLEMNSLRADDTAVYFCVKGASLGDNWGQGTLVTVSS VL: EIVMTQSPLSLPVTLGQPASISCRSSQSLVYSDGDTYMSWFHQRPGQSPRRLIYKVSNRDFGVPDRFSGSGSGTDFTLKISRVEAEDVGVYYCMQGTHWPYTFGPGTKVEIK	1680
CC9.2 IgG (antibody, V domains shown) VH: EVQLVESGGGLVQPGRSLRLSCVAPGFTLGGYGMHWVRQAPGKGLEWVGLISYDGSVQKYGSSVKGRFTISKDNSKNTLYLEMNSLRADDTAVYFCVKGASLGDNWGQGTLVTVSS VL: EIVMTQSPLSLPVTLGQPASISCRSSQSLVYSDGDTYMSWFHQRPGQSPRRLIYKVSNRDFGVPDRFSGSGSGTDFTLKISRVEAEDVGVYYCMQGTHWPYTFGPGTKVEIK	16

Reference: patent US20240182551A1 (published 2024)
